Substitutions are numbered along the chain they refer to.
Legend:
[1] = molecular target: T1, mouse vascular endothelial growth factor receptor-2 Fc chimera (Flk-1-Fc) (mouse, UniProt P35918 20-762); assay: binding to 1 nM Flk-1-Fc, % of input; radioactive equilibrium binding (assay not given)
T1 construct: Purchased from R&D Systems; also called mouse VEGF-R2; not shown: Fc part of the purchased chimera
Protocol: (§1) To prepare ³⁵S-labeled binding proteins for analysis, mRNA was prepared as described above for RNA-protein fusion production but the linker ligation step was omitted. The mRNA was expressed using rabbit reticulocyte lysate translation kit (Ambion) in the presence of ³⁵S-labeled Met at 30° C. for 1 hour. Expressed protein was purified on M2-agarose Flag beads (Sigma) as described above. This procedure produced the encoded protein without the nucleic acid tail. In a direct binding assay, VEGF-R2-Fc fusions in concentrations ranging from 0 to 200 nM were added to a constant concentration of the purified protein (0.2 or 0.5 nM) and incubated at 30° C. for 1 hour in buffer B. The receptor-binder complexes were captured using Protein A magnetic beads for another 10 minutes at room temperature using a Kingfisher™ The beads were washed with six reaction volumes of buffer B. The protein was eluted from the beads with 100 μL of 0.1 M KOH. […] of the reaction mixture and elution were dried onto a LumaPlate-96 (Packard) and the amount of ³⁵S on the plate was measured using a TopCount NXT instrument (Packard). The amount of fibronectin-based scaffold protein bound to the target was estimated as a percent of radioactivity eluted from Protein A magnetic beads compare to radioactivity in the reaction mixture. Nonspecific binding of fibronectin-based scaffold proteins to the beads was determined by measuring binding in the absence of KDR-Fc and represented less than 1-2% of the input. Specific binding was obtained through subtraction of nonspecific binding from total binding. Data was analyzed using the GraphPad Prizm software (GraphPad Software, Inc, San Diego, Calif.), fitted using a one site, non-linear binding equation.

[2] = molecular target: T2, human vascular endothelial growth factor receptor-2 Fc chimera (KDR-Fc) (human, UniProt P35968 20-764); assay: binding to 1 nM KDR-Fc, % of input; radioactive equilibrium binding (assay not given)
T2 construct: range 1-764; also called human VEGFR-2; hKDR; not shown: human IgG1 Fc
Protocol: as §1
T2 sequence (P35968 20-764 limits assumed, change not shown, form in doubt): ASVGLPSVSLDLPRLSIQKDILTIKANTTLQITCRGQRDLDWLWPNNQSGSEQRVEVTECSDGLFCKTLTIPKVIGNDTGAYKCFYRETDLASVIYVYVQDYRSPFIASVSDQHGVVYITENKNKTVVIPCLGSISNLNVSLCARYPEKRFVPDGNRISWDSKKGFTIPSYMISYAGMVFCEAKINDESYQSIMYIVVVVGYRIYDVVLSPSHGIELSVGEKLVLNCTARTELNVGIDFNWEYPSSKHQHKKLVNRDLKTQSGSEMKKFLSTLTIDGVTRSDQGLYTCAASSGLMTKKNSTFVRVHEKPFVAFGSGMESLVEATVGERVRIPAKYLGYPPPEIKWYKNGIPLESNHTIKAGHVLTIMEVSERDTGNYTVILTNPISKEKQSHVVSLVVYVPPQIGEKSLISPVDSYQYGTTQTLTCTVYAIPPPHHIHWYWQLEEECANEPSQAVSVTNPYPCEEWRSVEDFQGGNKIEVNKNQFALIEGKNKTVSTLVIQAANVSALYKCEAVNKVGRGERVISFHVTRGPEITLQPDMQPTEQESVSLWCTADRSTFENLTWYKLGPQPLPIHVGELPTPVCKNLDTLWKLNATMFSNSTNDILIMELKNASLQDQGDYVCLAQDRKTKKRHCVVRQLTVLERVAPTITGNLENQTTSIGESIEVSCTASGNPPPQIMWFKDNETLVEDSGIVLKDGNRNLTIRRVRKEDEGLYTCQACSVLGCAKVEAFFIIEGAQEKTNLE

[3] = molecular target: T3, human vascular endothelial growth factor receptor-2 Fc chimera (KDR-Fc) (human, UniProt P35968 20-764); assay: radioactive equilibrium binding, 1 nM KDR-Fc
T3 construct: range 1-764; purchased from R&D Systems; also called hKDR; human VEGF-R2-Fc; not shown: human IgG1 Fc
In short: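 Read-out: eluted ³⁵S as % of input radioactivity, minus bead-only binding without KDR-Fc (under 1-2% of input); one-site non-linear fit. Tracer binder 0.2 or 0.5 nM, receptor-Fc 0–200 nM, 1 h at 30° C in buffer B.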
T3 sequence (P35968 20-764 limits assumed, change not shown, form in doubt): as above

[4] = molecular target: T2, human vascular endothelial growth …; assay: radioactive equilibrium binding (assay not given)
Protocol: as §1

T1 sequence (P35918 20-762, change not shown): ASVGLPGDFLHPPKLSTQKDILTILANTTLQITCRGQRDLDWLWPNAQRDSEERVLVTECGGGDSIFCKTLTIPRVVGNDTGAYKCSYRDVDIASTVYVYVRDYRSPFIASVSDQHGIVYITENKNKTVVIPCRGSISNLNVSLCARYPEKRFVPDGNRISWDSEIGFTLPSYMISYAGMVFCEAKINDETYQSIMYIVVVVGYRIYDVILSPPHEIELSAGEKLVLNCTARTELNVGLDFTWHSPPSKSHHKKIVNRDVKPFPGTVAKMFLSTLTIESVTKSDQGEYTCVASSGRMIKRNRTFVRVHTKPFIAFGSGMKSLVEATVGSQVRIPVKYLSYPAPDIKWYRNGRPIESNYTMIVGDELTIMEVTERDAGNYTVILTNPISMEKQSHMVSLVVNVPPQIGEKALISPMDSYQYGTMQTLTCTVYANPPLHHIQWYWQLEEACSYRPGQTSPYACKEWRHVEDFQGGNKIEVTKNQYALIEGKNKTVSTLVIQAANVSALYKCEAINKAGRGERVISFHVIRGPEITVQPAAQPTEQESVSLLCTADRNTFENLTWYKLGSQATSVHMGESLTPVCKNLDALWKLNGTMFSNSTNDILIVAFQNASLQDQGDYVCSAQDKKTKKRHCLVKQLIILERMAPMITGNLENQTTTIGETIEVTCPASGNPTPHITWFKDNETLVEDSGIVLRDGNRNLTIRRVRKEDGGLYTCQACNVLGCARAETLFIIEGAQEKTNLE

B1: E8 (designed binder)
chain: EVVAATPTSLLISWRHPHFPTRYYRITYGETGGNSPVQEFTVPLQPPTATISGLKPGVDYTITGYAVTEEWNGRVLMTPISINYRT
notes: Del 1-8 10Fn3 clone; Flag tag of the radioactive-assay form not included
Binding to 1 nM FLK, % [1]: 10% | Binding to 1 nM KDR, % [2]: 51%

B2: E15 (designed binder)
chain: B1 chain with E69L, W71P, V75Y, T78V
notes: as for B1
Binding to 1 nM KDR, % [2]: 52%

B3: 4′B6 PR4 (designed binder)
chain: B1 chain with E69L, E70A, W71Q, G73D, R74H, V75E, M77I
notes: tag left out
Binding to 1 nM KDR, % [3]: 11%

B4: 3′E4 PR4 (designed binder)
chain: B1 chain with E69V, E70G, W71P, G73D, V75E, M77I, T78V
notes: tag left out
Binding to 1 nM KDR, % [3]: 12%

B5: 4′G8 PR4 (designed binder)
chain: B1 chain with E69V, E70A, W71Q, R74H, V75E, M77L
notes: tag left out
Binding to 1 nM KDR, % [3]: 13%

B6: 3′F7 PR4 (designed binder)
chain: B1 chain with E70G, W71Q, R74S, V75E, M77I, T78V
notes: tag left out
Binding to 1 nM KDR, % [3]: 14%

B7: K2 (designed binder)
chain: B1 chain with E69D, E70G, W71E, R74Q, V75F, M77L, T78V
notes: Del 1-8 10Fn3 clone; Flag tag of the assay form not included
Binding to 1 nM KDR, % [2]: 48% | Kd [4]: 1.19 nM

B8: K6 (designed binder)
chain: B1 chain with E69D, E70G, W71K, N72D, M77L
notes: as for B7
Binding to 1 nM KDR, % [2]: 27% | Kd [4]: 0.93 nM

B9: K1 (designed binder)
chain: B1 chain with E69M, E70G, W71L, N72Y, R74H, V75E, M77L
notes: Del 1-8 10Fn3 clone; tag not included
Binding to 1 nM KDR, % [2]: 48% | Kd [4]: 0.55 nM

B10: K7 (designed binder)
chain: B1 chain with E69S, E70G, W71H, G73D, R74H, V75M, T78I
notes: as for B7
Binding to 1 nM KDR, % [2]: 40% | Kd [4]: 2.2 nM

B11: E17 (designed binder)
chain: B1 chain with E69V, W71E, M77N
notes: as for B1
Binding to 1 nM FLK, % [1]: 10% | Binding to 1 nM KDR, % [2]: 32%

B12: 4G4 PR3 (designed binder)
chain: B1 chain with E69L, E70G, W71Q, G73D, R74H, V75E, M77L
notes: tag left out
Binding to 1 nM KDR, % [3]: 8%

B13: E21 (designed binder)
chain: B1 chain with E69W, E70G, W71Y, N72K, G73D, R74H, V75E, M77L, T78I
notes: as for B1
Binding to 1 nM KDR, % [2]: 47%

B14: 4A2 PR3 (designed binder)
chain: B1 chain with E69V, E70A, W71Q, G73A, R74H, V75E
notes: tag left out
Binding to 1 nM KDR, % [3]: 8%

B15: E24 (designed binder)
chain: B1 chain with E69V, W71R, G73D, M77F
notes: as for B1
Binding to 1 nM FLK, % [1]: 29% | Binding to 1 nM KDR, % [2]: 24%

B16: K5 (designed binder)
chain: B1 chain with E69M, E70G, W71P, G73D, R74N, V75E, M77L
notes: as for B7
Binding to 1 nM KDR, % [2]: 47% | Kd [4]: 1.54 nM

B17: E22 (designed binder)
chain: B1 chain with E69L, E70G, W71R, G73D, V75E, M77L
notes: as for B1
Binding to 1 nM KDR, % [2]: 45%

B18: 4C4 PR3 (designed binder)
chain: B1 chain with E69V, E70A, W71Q, N72D, G73D, R74H, V75E, M77F
notes: tag left out
Binding to 1 nM KDR, % [3]: 10%

B19: 4C11 PR3 (designed binder)
chain: B1 chain with E69M, E70A, W71Q, G73D, V75E, M77I
notes: tag left out
Binding to 1 nM KDR, % [3]: 14%

B20: E13 (designed binder)
chain: B1 chain with E69L, W71Q, V75E
notes: as for B1
Binding to 1 nM KDR, % [2]: 38%

B21: 3′E6 PR4 (designed binder)
chain: B1 chain with E69F, E70G, W71Q, R74K, V75E, L76F, M77R, T78I
notes: tag left out
Binding to 1 nM KDR, % [3]: 5%

B22: K14 (designed binder)
chain: B1 chain with E69R, W71E, G73D, R74H, V75E, M77L, T78I
notes: as for B7
Binding to 1 nM KDR, % [2]: 20% | Kd [4]: 0.57 nM

B23: E16 (designed binder)
chain: B1 chain with E69V, W71E, V75Q
notes: as for B1
Binding to 1 nM FLK, % [1]: 0% | Binding to 1 nM KDR, % [2]: 35%

B24: K15 (designed binder)
chain: B1 chain with E70V, W71H, N72H, G73D, V75E, L76I, M77K
notes: as for B7
Binding to 1 nM KDR, % [2]: 25% | Kd [4]: 0.35 nM

B25: E20 (designed binder)
chain: B1 chain with E69V, W71R, R74Q, M77Y
notes: as for B1
Binding to 1 nM FLK, % [1]: 11% | Binding to 1 nM KDR, % [2]: 43%

B26: K11 (designed binder)
chain: B1 chain with E69Q, E70A, W71P, G73D, M77Y
notes: as for B7
Binding to 1 nM KDR, % [2]: 24% | Kd [4]: 1.16 nM

B27: 4A3 PR3 (designed binder)
chain: B1 chain with E69V, E70A, W71Q, N72D, G73E, R74H, V75E, M77I
notes: tag left out
Binding to 1 nM KDR, % [3]: 6%

B28: 4B7 PR3 (designed binder)
chain: B1 chain with E69V, E70T, W71Q, G73D, R74H, V75E, M77F
notes: tag left out
Binding to 1 nM KDR, % [3]: 13%

B29: K4 (designed binder)
chain: B1 chain with E69A, E70G, W71Y, G73D, R74Q, V75I
notes: as for B7
Binding to 1 nM KDR, % [2]: 38% | Kd [4]: 1.95 nM

B30: K8 (designed binder)
chain: B1 chain with E69V, E70T, W71H, R74H, V75P
notes: as for B7
Binding to 1 nM KDR, % [2]: 18% | Kd [4]: 3.3 nM

B31: K3 (designed binder)
chain: B1 chain with E69A, E70G, N72D, G73D, R74H, V75E, M77F, T78I
notes: as for B7
Binding to 1 nM KDR, % [2]: 45% | Kd [4]: 1.15 nM

B32: E14 (designed binder)
chain: B1 chain with E69L, W71R, R74Q, M77F
notes: as for B1
Binding to 1 nM FLK, % [1]: 11% | Binding to 1 nM KDR, % [2]: 33%

B33: E10 (designed binder)
chain: B1 chain with E70G, W71R, V75E, M77F, T78I
notes: Del 1-8 10Fn3 clone; Flag tag not included
Binding to 1 nM KDR, % [2]: 53%

B34: E12 (designed binder)
chain: B1 chain with E69F, E70A, W71R, N72D, R74H, V75E, L76I, M77L
notes: as for B1
Binding to 1 nM KDR, % [2]: 36%

B35: 3′E8 PR4 (designed binder)
chain: B1 chain with E69V, E70A, W71Q, G73D, V75Q, M77F
notes: tag left out
Binding to 1 nM KDR, % [3]: 12%

B36: E27 (designed binder)
chain: B1 chain with E69V, W71R, R74H, V75T
notes: as for B1
Binding to 1 nM FLK, % [1]: 9% | Binding to 1 nM KDR, % [2]: 37%

B37: E2 (designed binder)
chain: B1 chain with E69D, E70G, W71P, G73D, V75L, M77N, T78I
notes: as for B1
Binding to 1 nM KDR, % [2]: 53%

B38: 4D2 PR3 (designed binder)
chain: B1 chain with E69V, E70A, W71Q, G73N, R74H, V75E, M77I
notes: tag left out
Binding to 1 nM KDR, % [3]: 8%

B39: K12 (designed binder)
chain: B1 chain with E69D, E70V, W71Y, G73D, R74H, V75E, L76I, M77K
notes: as for B7
Binding to 1 nM KDR, % [2]: 29% | Kd [4]: 0.62 nM

B40: K9 (designed binder)
chain: B1 chain with E69F, E70G, W71L, N72Y, R74K, V75E, M77L, T78I
notes: as for B7
Binding to 1 nM KDR, % [2]: 35% | Kd [4]: 1.8 nM

B41: 4B6 PR3 (designed binder)
chain: B1 chain with E69V, E70G, W71Q, G73D, R74H, V75E, M77F
notes: tag left out
Binding to 1 nM KDR, % [3]: 14%

B42: 4F12 PR3 (designed binder)
chain: B1 chain with E69V, E70T, W71Q, R74H, V75E, M77I
notes: tag left out
Binding to 1 nM KDR, % [3]: 13%

B43: K10 (designed binder)
chain: B1 chain with E69T, E70G, W71P, G73D, V75L, M77F, T78V
notes: as for B7
Binding to 1 nM KDR, % [2]: 33% | Kd [4]: 0.57 nM

B44: K13 (designed binder)
chain: B1 chain with E69L, E70A, W71L, N72K, R74H, V75E, M77L
notes: as for B7
Binding to 1 nM KDR, % [2]: 17% | Kd [4]: 0.58 nM
